Source: patent US20170368169A1 (MARENGO THERAPEUTICS, published 2017)

How the values were obtained:
[1] = target: T1, human mesothelin (generated from SEQ ID NO: 181) (human); assay: ELISA on plate-bound antigen, molecule titrated 1 uM-1 pM
T1 construct: Antigen construct made in house; BirA was co-transfected when biotinylation was required; also called hMeso 1-7; hMesothelin
T1 chain: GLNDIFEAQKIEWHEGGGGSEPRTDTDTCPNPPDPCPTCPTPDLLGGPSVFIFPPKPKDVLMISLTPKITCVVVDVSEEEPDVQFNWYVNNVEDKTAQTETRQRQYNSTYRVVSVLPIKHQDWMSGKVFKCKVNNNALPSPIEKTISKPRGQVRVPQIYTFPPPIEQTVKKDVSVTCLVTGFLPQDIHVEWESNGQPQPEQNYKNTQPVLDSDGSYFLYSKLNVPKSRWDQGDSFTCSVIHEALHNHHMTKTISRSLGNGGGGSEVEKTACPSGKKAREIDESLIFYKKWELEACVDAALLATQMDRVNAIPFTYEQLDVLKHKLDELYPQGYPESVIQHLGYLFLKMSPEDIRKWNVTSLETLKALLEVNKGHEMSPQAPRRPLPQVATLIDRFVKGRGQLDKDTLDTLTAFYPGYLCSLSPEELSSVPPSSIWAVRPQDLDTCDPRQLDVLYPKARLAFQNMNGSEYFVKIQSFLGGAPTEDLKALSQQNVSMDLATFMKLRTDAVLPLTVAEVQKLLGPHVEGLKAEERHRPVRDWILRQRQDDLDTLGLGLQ

[2] = target: T2, human PD1L1 (generated from SEQ ID NO: 178) (human); assay: as above
T2 construct: Antigen construct made in house; also called hPD1L1; human PDL1

- EC50 [1]: 163 nM
- EC50 [2]: 0.25 nM
B1: Multispecific molecule 5 (bispecific antibody, human IgG1, kappa, lambda)
heavy 1: not shown
light 1: not shown
heavy 2: EVQLLESGGGLVQPGGSLRLSCAASGFTFSSYIMMWVRQAPGKGLEWVSSIYPSGGITFYADTVKGRFTISRDNSKNTLYLQMNSLRAEDTAVYYCARIKLGTVTTVDYWGQGTLVTVSSASTKGPSVFPLAPSSKSTSGGTAALGCLVKDYFPEPVTVSWNSGALTSGVHTFPAVLQSSGLYSLSSVVTVPSSSLGTQTYICNVNHKPSNTKVDKRVEPKSCDKTHTCPPCPAPELLGGPSVFLFPPKPKDTLMISRTPEVTCVVVDVSHEDPEVKFNWYVDGVEVHNAKTKPREEQYNSTYRVVSVLTVLHQDWLNGKEYKCKVSNKALPAPIEKTISKAKGQPREPQVCTLPPSREEMTKNQVSLSCAVKGFYPSDIAVEWESNGQPENNYKTTPPVLDSDGSFFLVSKLTVDKSRWQQGNVFSCSVMHEALHNHYTQKSLSLSPGK
light 2: QSALTQPASVSGSPGQSITISCTGTSSDVGGYNYVSWYQQHPGKAPKLMIYDVSNRPSGVSNRFSGSKSGNTASLTISGLQAEDEADYYCSSYTSSSTRVFGTGTKVTVLGQPKANPTVTLFPPSSEELQANKATLVCLISDFYPGAVTVAWKADGSPVKAGVETTKPSKQSNNKYAASSYLSLTPEQWKSHRSYSCQVTHEGSTVEKTVAPTECS
notes: Mesothelin targeting arm and PDL1 targeting arm
